Experimental findings from publication doi:10.1101/2022.03.10.483757 (bioRxiv, 2022) are described below.

The data set concerns the molecule itself. Nature of the data set: crystal structure.

B1: His6-tagged SFPQ-276–535 L534I (domain or fragment, human, UniProt P23246 276-535, looked up)
chain: EGFKANLSLLRRPGEKTYTQRCRLFVGNLPADITEDEFKRLFAKYGEPGEVFINKGKGFGFIKLESRALAEIAKAELDDTPMRGRQLRVRFATHAAALSVRNLSPYVSNELLEEAFSQFGPIERAVVIVDDRGRSTGKGIVEFASKPAARKAFERCSEGVFLLTTTPRPVIVEPLEQLDDEDGLPEKLAQKNPMYQKERETPPRFAQHGTFEYEYSQRWKSLDEMEKQQREQVEKNMKDAKDKLESEMEDAYHEHQANIL
For the protein B1, the binding result is recorded as “binds”.
